Assay results reported in the RNAGym collection of RNA variant scans (doi:10.7554/elife.80360).

B1: CPEB3 Ribozyme (parent)
chain: GGGGGCCACAGCAGAAGCGUUCACGUCGCGGCCCCUGUCAGAUUCUGGUGAAUCUGCGAAUUCUGCUGU

Variants of: B1
Test: self-cleavage, relative activity (ratio to wild type); higher = more cleavage; co-transcriptional

Row | Variant | self-cleavage
1 | G28U C45U | 0.168
2 | C27G U38C | 0.243
3 | C27G U38A | 0.191
4 | G28C A52U | 0.197
5 | C27U G37U | 0.0803
6 | C27U G37C | 0.147
7 | G28A U38C | 0.196
8 | G28A U38G | 0.147
9 | G28A G30C | 0.167
10 | G28U G37C | 0.172
11 | G28U G37U | 0.166
12 | G28U A60C | 0.226
13 | G28U A60G | 0.214
14 | G28U A52C | 0.132
15 | G28U A52U | 0.198
16 | C27U U55C | 0.143
17 | C27U U55A | 0.184
18 | C27U | 0.417
19 | G28A C63G | 0.178
20 | G28A C63A | 0.182
21 | C27U G48C | 0.397
22 | C27U C35U | 0.318
23 | C27U C35A | 0.158
24 | C27G U44G | 0.155

Row | Variant | self-cleavage
25 | G28C G48A | 0.195
26 | G28C G48U | 0.202
27 | G28A U36C | 0.128
28 | G28A U36G | 0.133
29 | G28A C29G | 0.117
30 | G28A C29U | 0.177
31 | G28A C29A | 0.143
32 | C27U C39A | 0.186
33 | C27U C39G | 0.164
34 | G28C G41U | 0.152
35 | G28C G41A | 0.201
36 | G28C G41C | 0.178
37 | G28C U36A | 0.162
38 | G28C U36G | 0.189
39 | G28C U36C | 0.147
40 | C27U G68A | 0.614
41 | C27U G68U | 0.432
42 | G28A G41C | 0.177
43 | C27U C32U | 0.403
44 | C27U C32G | 0.186
45 | C27U C32A | 0.227
46 | G28C G56U | 0.17
47 | G28A U55C | 0.214
48 | G28C U43C | 0.141

Row | Variant | self-cleavage
49 | G28C U43A | 0.109
50 | G28C U43G | 0.255
51 | G28A U62C | 0.218
52 | G28A U62A | 0.203
53 | C27G U49G | 0.112
54 | C27G U49A | 0.209
55 | C27G U49C | 0.22
56 | G28A G47C | 0.212
57 | G28A G47U | 0.262
58 | G28A G65C | 0.172
59 | G28C G37U | 0.129
60 | G28C G37A | 0.117
61 | G28C G37C | 0.186
62 | G28C A59G | 0.132
63 | G28C A59U | 0.189
64 | G28C A59C | 0.16
65 | G28A G50U | 0.159
66 | G28A G50A | 0.195
67 | C27G U69A | 0.267
68 | C27G U69C | 0.374
69 | G28A C39A | 0.198
70 | G28A C39U | 0.17
71 | G28C U49C | 0.145
72 | G28C G47U | 0.167

Row | Variant | self-cleavage
73 | G28C G47A | 0.187
74 | G28C G47C | 0.258
75 | G28A C66G | 0.196
76 | G28C C63U | 0.192
77 | C27U G41U | 0.186
78 | C27U G41C | 0.195
79 | C27G G41A | 0.154
80 | C27G G41U | 0.151
81 | C27U U64C | 0.245
82 | C27U U64G | 0.197
83 | G28C C35U | 0.178
84 | G28C C35A | 0.176
85 | C27U U69G | 0.457
86 | C27U U69C | 0.769
87 | C27U A52G | 0.415
88 | C27U A52U | 0.291
89 | C27U A52C | 0.302
90 | G28C U53C | 0.145
91 | G28C U53G | 0.196
92 | G28C U53A | 0.156
93 | G28A C57G | 0.17
94 | G28A C57U | 0.137
95 | G28A C57A | 0.136
96 | G28A A42C | 0.177

Row | Variant | self-cleavage
97 | G28A A42G | 0.131
98 | G28A A42U | 0.137
99 | G28A G37A | 0.157
100 | G28A G37C | 0.193
101 | G28A G37U | 0.186
102 | C27U U49G | 0.421
103 | G28C A42U | 0.25
104 | G28C A60U | 0.19
105 | G28C A60G | 0.168
106 | C27U G56C | 0.194
107 | C27U G56A | 0.308
108 | G28U A42U | 0.149
109 | G28U A42G | 0.112
110 | G28A G56A | 0.164
111 | G28A G56C | 0.235
112 | G28A G56U | 0.167
113 | G28C G31U | 0.21
114 | G28C G31A | 0.139
115 | G28C G31C | 0.172
116 | C27G U53G | 0.267
117 | C27G U53C | 0.134
118 | C27G U53A | 0.221
119 | G28A U61A | 0.193
120 | G28A U61C | 0.137

Row | Variant | self-cleavage
121 | C27U U67C | 0.332
122 | C27U U67A | 0.276
123 | C27G U61A | 0.19
124 | C27U C66U | 0.203
125 | C27U C66A | 0.179
126 | C27U C66G | 0.262
127 | G28U A51G | 0.196
128 | G28U A51C | 0.157
129 | C27U G65U | 0.148
130 | C27U G65A | 0.172
131 | C27U G65C | 0.196
132 | C27U C29A | 0.192
133 | C27U A42G | 0.174
134 | C27U A42C | 0.27
135 | G28C G30A | 0.22
136 | G28C G30C | 0.143
137 | C27U C33G | 0.206
138 | C27U C33A | 0.271
139 | C27U C33U | 0.345
140 | G28A U53C | 0.154
141 | G28A U53G | 0.203
142 | G28U G41A | 0.166
143 | C27U C57G | 0.166
144 | C27U C57A | 0.242

Row | Variant | self-cleavage
145 | G28C U69A | 0.18
146 | G28C A40U | 0.215
147 | G28C A40C | 0.218
148 | G28C A40G | 0.211
149 | G28A U64A | 0.245
150 | G28A C45G | 0.196
151 | G28A C45A | 0.184
152 | G28A C32A | 0.19
153 | G28A C32G | 0.139
154 | G28A C32U | 0.184
155 | G28C U67G | 0.295
156 | G28C U67C | 0.168
157 | C27U U43A | 0.188
158 | C27U U43G | 0.14
159 | G28C U55C | 0.162
160 | G28C U55G | 0.117
161 | G28U C32A | 0.236
162 | G28U A40C | 0.225
163 | G28U A40G | 0.232
164 | G28C A51G | 0.247
165 | G28C A51C | 0.119
166 | G28C A51U | 0.165
167 | C27G G56C | 0.135
